Test results published in US11466286B2, “Methods and compositions for conferring and/or enhancing herbicide tolerance using protoporphyrinogen oxidase or variant thereof” (FarmHannong Co., Ltd., priority 2016, dated 2022).

Tested on: CyPPO10
Assay: PPO enzyme activity and IC50 by herbicides, CyPPO10 wild type and variants (MBP-PPO fusion)
Type: biochemical, Thermosynechococcus elongatus BP-1
Details: PPO enzyme activity of CyPPO10 protein, wild type = 100
Protocol: The enzyme activities of PPO protein and PPO protein variants were examined, and inhibition assay by PPO-inhibiting herbicides was conducted. It was confirmed that the PPO protein has low water-solubility, but in case of being expressed as a fusion protein with MBP (maltose binding protein) (MBP-PPO), the PPO protein is able to be stably expressed as water-soluble form. Therefore, the wild type and variant proteins which were expressed in the form of fusion protein with MBP were used in the present test (refer to FIG. 4).
In order to express wild type genes and mutant genes of CyPPO10 and CyPPO13 (refer to Example 1 and Example 4), those genes were introduced to pMAL-c2X vector (refer to FIG. 5) respectively, and then cloned to BL21 (DE3) E. coli (CodonPlus).
The enzyme activity of the purified wild type protein and variant proteins of CyPPO10 and CyPPO13 was measured by the following process.
At first, a substrate of PPO protein, Protoporphyrinogen IX was synthesized. This process was performed in the space where nitrogen gas is streamed. 6 mg of protoporphyrin IX was dissolved in 20% (v/v) EtOH 20 ml, and stirred under dark condition for 30 minutes. The obtained protoporphyrinogen IX solution was put into a 15 ml screw tube in an amount of 800 and flushed with nitrogen gas for 5 minutes. To this, 1 g of sodium amalgam was added and vigorous shaking was performed for 2 minutes. The lid was open to exhaust hydrogen gas in the tube. Thereafter, the lid was closed and incubated for 3 minutes. The […] was filtered using syringe and cellulose membrane filter. To 600 μl of the obtained […], 2M MOPS [3-(N-morpholino)propanesulfonic acid] was added in an amount of approximately 300 thereby adjusting pH to 8.0. To determine the enzyme activity of PPO protein, a reaction mixture was prepared with the following composition (based on 10 ml): 50 mM Tris-Cl (pH 8.0); 50 mM NaCl; 0.04% (v/v) Tween 20; 40 mM glucose (0.072 g); 5 units glucose oxidase (16.6 mg); and 10 units catalase (1 μl).
Two hundred microliters (200 μl) of reaction mixture containing a purified PPO protein were placed in 96 well plates, and preincubated for 30 min at room temperature to reduce the oxygen concentration by the reaction of glucose oxidase-catalase. The mineral oil was layered and then the reaction was initiated by adding the substrate, […], to a final concentration of 50 μM. The reaction proceeded at room temperature for 30 min and the fluorescence of protoporphyrin IX was measured using Microplate reader (Sense, Hidex) (excitation: 405 nm; emission: 633 nm). To calculate the PPO enzyme activity, protoporphyrinogen IX solution was kept open in the air to oxidize the solution (overnight). To this, 2.7N HCl was added, and the absorbance at 408 nm was measured. A standard curve was generated using standard protoporphyrin IX, and the PPO activity was measured by calibration of protoporphyrin IX using the standard curve of protoporphyrin IX.
The final concentration of each herbicide was as follows: […]

Row | Molecule | Activity (%)
1 | CyPPO10 F360V: CyPPO10 (SEQ ID NO: 2) PPO variant (protein, Synthetic CyPPO10) MIEVDVAIVGGGLSGLSVAWRLQRSAPHYSGVLLEASDRLGGNITTQAAEGFVWELGPNSFAPTPALLQLIAEVGLHSELIRGDRHLPRYIYWRGELYPLEPTRPLALATSNLLSPWGKVRAALGALGFVPPYLGSGDESVDSFFRRHLGQEVAERLVAPFVSGVYAGDPQQLSAAAAFRRIAQLEKLGGSLIAGALRLRRQQPPQPKPPAQVQMRPGELGSFREGLAALPRAIAQQLKAPLHLQTPVEAITPEPKGGYLLRSGEQTWHARSVVLATPAYQTAELVAPFQPAIARALATIPYPTVACVVLAYPAGLGRSVRPGFGVLVPRGQGIRTLGTIWSSCLFPQRTPAGWQVFTSVIGGATDPDLASLREEAIVEQVQQDLTRLLDLPAAKARLLGMKVWRRAIPQYIVGYPQQWQQVTHALTQTPGLFLCSNYAEGVALGDRVEHGNRTAAAVAAYLAGGQS | 56%
2 | CyPPO10 N59T + F360V: CyPPO10 (SEQ ID NO: 2) PPO variant (protein, Synthetic CyPPO10) MIEVDVAIVGGGLSGLSVAWRLQRSAPHYSGVLLEASDRLGGNITTQAAEGFVWELGPTSFAPTPALLQLIAEVGLHSELIRGDRHLPRYIYWRGELYPLEPTRPLALATSNLLSPWGKVRAALGALGFVPPYLGSGDESVDSFFRRHLGQEVAERLVAPFVSGVYAGDPQQLSAAAAFRRIAQLEKLGGSLIAGALRLRRQQPPQPKPPAQVQMRPGELGSFREGLAALPRAIAQQLKAPLHLQTPVEAITPEPKGGYLLRSGEQTWHARSVVLATPAYQTAELVAPFQPAIARALATIPYPTVACVVLAYPAGLGRSVRPGFGVLVPRGQGIRTLGTIWSSCLFPQRTPAGWQVFTSVIGGATDPDLASLREEAIVEQVQQDLTRLLDLPAAKARLLGMKVWRRAIPQYIVGYPQQWQQVTHALTQTPGLFLCSNYAEGVALGDRVEHGNRTAAAVAAYLAGGQS | 62%
3 | CyPPO10 R89A + F360M: CyPPO10 (SEQ ID NO: 2) PPO variant (protein, Synthetic CyPPO10) MIEVDVAIVGGGLSGLSVAWRLQRSAPHYSGVLLEASDRLGGNITTQAAEGFVWELGPNSFAPTPALLQLIAEVGLHSELIRGDRHLPAYIYWRGELYPLEPTRPLALATSNLLSPWGKVRAALGALGFVPPYLGSGDESVDSFFRRHLGQEVAERLVAPFVSGVYAGDPQQLSAAAAFRRIAQLEKLGGSLIAGALRLRRQQPPQPKPPAQVQMRPGELGSFREGLAALPRAIAQQLKAPLHLQTPVEAITPEPKGGYLLRSGEQTWHARSVVLATPAYQTAELVAPFQPAIARALATIPYPTVACVVLAYPAGLGRSVRPGFGVLVPRGQGIRTLGTIWSSCLFPQRTPAGWQVFTSMIGGATDPDLASLREEAIVEQVQQDLTRLLDLPAAKARLLGMKVWRRAIPQYIVGYPQQWQQVTHALTQTPGLFLCSNYAEGVALGDRVEHGNRTAAAVAAYLAGGQS | 67%
4 | CyPPO10 R89A + F360I: CyPPO10 (SEQ ID NO: 2) PPO variant (protein, Synthetic CyPPO10) MIEVDVAIVGGGLSGLSVAWRLQRSAPHYSGVLLEASDRLGGNITTQAAEGFVWELGPNSFAPTPALLQLIAEVGLHSELIRGDRHLPAYIYWRGELYPLEPTRPLALATSNLLSPWGKVRAALGALGFVPPYLGSGDESVDSFFRRHLGQEVAERLVAPFVSGVYAGDPQQLSAAAAFRRIAQLEKLGGSLIAGALRLRRQQPPQPKPPAQVQMRPGELGSFREGLAALPRAIAQQLKAPLHLQTPVEAITPEPKGGYLLRSGEQTWHARSVVLATPAYQTAELVAPFQPAIARALATIPYPTVACVVLAYPAGLGRSVRPGFGVLVPRGQGIRTLGTIWSSCLFPQRTPAGWQVFTSIIGGATDPDLASLREEAIVEQVQQDLTRLLDLPAAKARLLGMKVWRRAIPQYIVGYPQQWQQVTHALTQTPGLFLCSNYAEGVALGDRVEHGNRTAAAVAAYLAGGQS | 38%
5 | CyPPO10 R89A + F360L: CyPPO10 (SEQ ID NO: 2) PPO variant (protein, Synthetic CyPPO10) MIEVDVAIVGGGLSGLSVAWRLQRSAPHYSGVLLEASDRLGGNITTQAAEGFVWELGPNSFAPTPALLQLIAEVGLHSELIRGDRHLPAYIYWRGELYPLEPTRPLALATSNLLSPWGKVRAALGALGFVPPYLGSGDESVDSFFRRHLGQEVAERLVAPFVSGVYAGDPQQLSAAAAFRRIAQLEKLGGSLIAGALRLRRQQPPQPKPPAQVQMRPGELGSFREGLAALPRAIAQQLKAPLHLQTPVEAITPEPKGGYLLRSGEQTWHARSVVLATPAYQTAELVAPFQPAIARALATIPYPTVACVVLAYPAGLGRSVRPGFGVLVPRGQGIRTLGTIWSSCLFPQRTPAGWQVFTSLIGGATDPDLASLREEAIVEQVQQDLTRLLDLPAAKARLLGMKVWRRAIPQYIVGYPQQWQQVTHALTQTPGLFLCSNYAEGVALGDRVEHGNRTAAAVAAYLAGGQS | 30%
6 | CyPPO10 V165S + F360M: CyPPO10 (SEQ ID NO: 2) PPO variant (protein, Synthetic CyPPO10) MIEVDVAIVGGGLSGLSVAWRLQRSAPHYSGVLLEASDRLGGNITTQAAEGFVWELGPNSFAPTPALLQLIAEVGLHSELIRGDRHLPRYIYWRGELYPLEPTRPLALATSNLLSPWGKVRAALGALGFVPPYLGSGDESVDSFFRRHLGQEVAERLVAPFVSGSYAGDPQQLSAAAAFRRIAQLEKLGGSLIAGALRLRRQQPPQPKPPAQVQMRPGELGSFREGLAALPRAIAQQLKAPLHLQTPVEAITPEPKGGYLLRSGEQTWHARSVVLATPAYQTAELVAPFQPAIARALATIPYPTVACVVLAYPAGLGRSVRPGFGVLVPRGQGIRTLGTIWSSCLFPQRTPAGWQVFTSMIGGATDPDLASLREEAIVEQVQQDLTRLLDLPAAKARLLGMKVWRRAIPQYIVGYPQQWQQVTHALTQTPGLFLCSNYAEGVALGDRVEHGNRTAAAVAAYLAGGQS | 78%
7 | CyPPO10 V165S + F360I: CyPPO10 (SEQ ID NO: 2) PPO variant (protein, Synthetic CyPPO10) MIEVDVAIVGGGLSGLSVAWRLQRSAPHYSGVLLEASDRLGGNITTQAAEGFVWELGPNSFAPTPALLQLIAEVGLHSELIRGDRHLPRYIYWRGELYPLEPTRPLALATSNLLSPWGKVRAALGALGFVPPYLGSGDESVDSFFRRHLGQEVAERLVAPFVSGSYAGDPQQLSAAAAFRRIAQLEKLGGSLIAGALRLRRQQPPQPKPPAQVQMRPGELGSFREGLAALPRAIAQQLKAPLHLQTPVEAITPEPKGGYLLRSGEQTWHARSVVLATPAYQTAELVAPFQPAIARALATIPYPTVACVVLAYPAGLGRSVRPGFGVLVPRGQGIRTLGTIWSSCLFPQRTPAGWQVFTSIIGGATDPDLASLREEAIVEQVQQDLTRLLDLPAAKARLLGMKVWRRAIPQYIVGYPQQWQQVTHALTQTPGLFLCSNYAEGVALGDRVEHGNRTAAAVAAYLAGGQS | 63%
